Source: PMC5689134, “Detailed Analysis of Insulin Absorption Variability and the Tissue Response to Continuous Subcutaneous Insulin Infusion Catheter Implantation in Swine” (Diabetes Technology & Therapeutics, 2017)

Test system: subcutaneous tissue
Experiment: Tissue histology surrounding CSII catheters, pathologist grading
Assay type: in vivo, swine
Conditions: for Tissue histopathology compared with catheters infused with saline or not infused: day 5 of CSII infusion, result in words
Experimental: The swine were euthanized after completion of the third PK study on day 5. A 50 μL bolus of methylene blue dye was then infused into the CCs and ICs to determine whether dye migrated onto the skin surface. The skin and subcutaneous tissue surrounding the 72 catheters were excised and fixed in 10% formalin for 3 days. The tissue was grossed and processed using a long dehydration protocol for fatty tissue.[21] Specimens were sectioned perpendicular or parallel to the skin surface depending on the location and angle of the cannula in the excised tissue specimen. Four-micrometer-thick tissue sections were stained with hematoxylin and eosin (nuclei are stained blue/purple, extracellular matrix [ECM] and cytoplasm are stained in pink), Masson's trichrome (collagen/connective tissue is stained blue, muscle fibers and erythrocytes are stained bright red, and cytoplasm is stained pink), and a reticulin stain (type III collagen is stained silver).
A surgical pathologist analyzed the stained tissue for no, mild, moderate, or severe (grades 0, 1, 2, or 3, respectively) hemorrhage, reticular fiber disruption, fibrin deposition, fat necrosis, and collagen deposition compared with unaffected tissue. This grading system was newly established by the lead pathologist of this study who predefined these criteria before analyzing all samples. The pathologist remained blinded throughout the study. The size of the debris field was measured (mm) using the Aperio ScanScope image capture device and ImageScope software (Leica Biosystems). Topography of tissue planes was considered regular if subcutaneous tissue was pushed down evenly in the direction of the cannula tip and irregular or intermediate otherwise. Irregular or regular reservoir geometry described the shape of the debris field surrounding the catheter tip.
Fisher's exact test was used to evaluate the differences in histology profiles of CCs and ICs. A chi-squared test was applied to analyze differences in methylene blue dye leakage.

[1] = swine s.c. tissue, day 5, insulin-infused CSII catheters (CC + IC), count (percent in brackets)
[2] = swine s.c. tissue, day 5, insulin-infused CSII catheters (CC + IC), count (percent in brackets), P < 0.05 between infusion types
[3] = swine, day 5, insulin-infused CC, count (percent of 11 catheters)
[4] = swine, day 5, insulin-infused IC, count (percent of 12 catheters)

Q: Which “Collagen deposition at tip: catheters graded Mild” value [1] does the source give for insulin lispro here?
A: 16 (66.7)

Q: And the “Collagen deposition at tip: catheters graded Moderate” value [1]?
A: 5 (20.8)

Q: What about the “Collagen deposition at tip: catheters graded None” value [1] of the same substance?
A: 2 (8.3)

Q: And the “Collagen deposition at tip: catheters graded Severe” value [1]?
A: 1 (4.2)

Q: What about the “Fat Necrosis: catheters graded Mild” value [1] of the same substance?
A: 5 (20.8)

Q: What about the “Fat Necrosis: catheters graded Moderate” value [1] of the same substance?
A: 12 (50.0)

Q: What about the “Fat Necrosis: catheters graded None” value [1] of the same substance?
A: 1 (4.2)

Q: And the “Fat Necrosis: catheters graded Severe” value [1]?
A: 6 (25.0)

Q: And the “Hemorrhage at tip base: catheters graded Mild” value [1]?
A: 13 (54.2)

Q: What about the “Hemorrhage at tip base: catheters graded Moderate” value [1] of the same substance?
A: 10 (41.7)

Q: What about the “Hemorrhage at tip base: catheters graded None” value [1] of the same substance?
A: 1 (4.2)

Q: What about the “Hemorrhage at tip base: catheters graded Severe” value [1] of the same substance?
A: 0

Q: What about the “Reticular Fiber Disruption: catheters graded Mild” value [1] of the same substance?
A: 9 (37.5)

Q: What about the “Reticular Fiber Disruption: catheters graded Moderate” value [1] of the same substance?
A: 6 (25.0)

Q: What about the “Reticular Fiber Disruption: catheters graded None” value [1] of the same substance?
A: 1 (4.2)

Q: What about the “Reticular Fiber Disruption: catheters graded Severe” value [1] of the same substance?
A: 8 (33.3)

Q: What about the “Fibrin Deposition in Reservoir: catheters graded Mild” value [2] of the same substance?
A: 2 (8.3)

Q: What about the “Fibrin Deposition in Reservoir: catheters graded None” value [2] of the same substance?
A: 1 (4.2)

Q: And the “Fibrin deposition in reservoir: catheters graded Moderate” value [2]?
A: 11 (45.8)

Q: What about the “Fibrin deposition in reservoir: catheters graded Severe” value [2] of the same substance?
A: 10 (41.7)

Q: And the “Tissue histopathology compared with catheters infused with saline or not infused” value (swine s.c. tissue)?
A: increased fibrin

Q: What about the “Tissue histopathology compared with catheters infused with saline or not infused” value (swine s.c. tissue, listed as lispro insulin) of the same substance?
A: greater amount of fibrin in the reservoir

Q: What about the “Collagen Deposition at Tip: catheters graded Mild” value [3] of the same substance?
A: 9 (82%)

Q: What about the “Collagen Deposition at Tip: catheters graded Moderate” value [3] of the same substance?
A: 2 (18%)

Q: And the “Collagen Deposition at Tip: catheters graded None” value [3]?
A: 0

Q: And the “Collagen Deposition at Tip: catheters graded Severe” value [3]?
A: 0

Q: What about the “Fat Necrosis: catheters graded Mild” value [3] of the same substance?
A: 4 (36%)

Q: And the “Fat Necrosis: catheters graded Moderate” value [3]?
A: 7 (64%)

Q: And the “Fat Necrosis: catheters graded None” value [3]?
A: 0

Q: And the “Fat Necrosis: catheters graded Severe” value [3]?
A: 0

Q: And the “Fibrin Deposition in Reservoir: catheters graded Mild” value [3]?
A: 0

Q: What about the “Fibrin Deposition in Reservoir: catheters graded None” value [3] of the same substance?
A: 0

Q: What about the “Fibrin deposition in reservoir: catheters graded Moderate” value [3] of the same substance?
A: 3 (27%)

Q: What about the “Hemorrhage at Tip Base: catheters graded Mild” value [3] of the same substance?
A: 7 (64%)

Q: What about the “Hemorrhage at Tip Base: catheters graded Moderate” value [3] of the same substance?
A: 4 (36%)

Q: And the “Hemorrhage at Tip Base: catheters graded None” value [3]?
A: 0

Q: What about the “Hemorrhage at Tip Base: catheters graded Severe” value [3] of the same substance?
A: 0

Q: What about the “Reticular Fiber Disruption: catheters graded Mild” value [3] of the same substance?
A: 9 (82%)

Q: What about the “Reticular Fiber Disruption: catheters graded Moderate” value [3] of the same substance?
A: 2 (18%)

Q: And the “Reticular Fiber Disruption: catheters graded None” value [3]?
A: 0

Q: And the “Reticular Fiber Disruption: catheters graded Severe” value [3]?
A: 0

Q: What about the “Collagen Deposition at Tip: catheters graded Mild” value [4] of the same substance?
A: 7 (58%)

Q: What about the “Collagen Deposition at Tip: catheters graded Moderate” value [4] of the same substance?
A: 3 (25%)

Q: And the “Collagen Deposition at Tip: catheters graded None” value [4]?
A: 1 (8%)

Q: And the “Collagen Deposition at Tip: catheters graded Severe” value [4]?
A: 1 (8%)

Q: What about the “Fat Necrosis: catheters graded Mild” value [4] of the same substance?
A: 1 (8%)

Q: And the “Fat Necrosis: catheters graded Moderate” value [4]?
A: 5 (42%)

Q: What about the “Fat Necrosis: catheters graded None” value [4] of the same substance?
A: 0

Q: And the “Fat Necrosis: catheters graded Severe” value [4]?
A: 6 (50%)

Q: And the “Fibrin Deposition in Reservoir: catheters graded Mild” value [4]?
A: 2 (17%)

Q: And the “Fibrin Deposition in Reservoir: catheters graded None” value [4]?
A: 0

Q: And the “Fibrin deposition in reservoir: catheters graded Severe” value [4]?
A: 2 (17%)

Q: And the “Hemorrhage at Tip Base: catheters graded Mild” value [4]?
A: 6 (50%)

Q: And the “Hemorrhage at Tip Base: catheters graded Moderate” value [4]?
A: 6 (50%)

Q: And the “Hemorrhage at Tip Base: catheters graded None” value [4]?
A: 0

Q: What about the “Hemorrhage at Tip Base: catheters graded Severe” value [4] of the same substance?
A: 0

Q: What about the “Reticular Fiber Disruption: catheters graded Mild” value [4] of the same substance?
A: 0

Q: And the “Reticular Fiber Disruption: catheters graded Moderate” value [4]?
A: 4 (33%)

Q: And the “Reticular Fiber Disruption: catheters graded None” value [4]?
A: 0

Q: And the “Reticular Fiber Disruption: catheters graded Severe” value [4]?
A: 8 (67%)
